Laboratory results as given in publication PMC6047671.

Target: human catalytic domain of MMP-14 (human)

Chain of human N-terminal domain of tissue inhibitor of metalloproteinase-2 (domain or fragment) (P16035 27-220): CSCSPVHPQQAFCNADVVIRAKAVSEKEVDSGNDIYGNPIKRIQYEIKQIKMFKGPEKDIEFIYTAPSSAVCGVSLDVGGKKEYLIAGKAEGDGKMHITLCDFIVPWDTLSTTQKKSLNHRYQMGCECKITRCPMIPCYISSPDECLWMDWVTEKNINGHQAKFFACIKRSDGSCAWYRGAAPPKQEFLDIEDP

“human N-terminal domain of tissue inhibitor of metalloproteinase-2 (domain or fragment)” was tested. Which IC50 of inhibition of hydrolysis of the FRET peptide substrate M-2350 (1 nM human cdMMP-14, 1 μM substrate) did it give?
Its IC50 of inhibition of hydrolysis of the FRET peptide substrate M-2350 (1 nM human cdMMP-14, 1 μM substrate) is 3 nM.
